# Target: recombinant NbRab‐G3c protein (Nicotiana benthamiana)
# Test: ITC
binder,measurement,value
recombinant Pi17063 protein (natural protein) ASADSNERLVRAVYSTVRSRDLATDDGPKHTKRFLRGESSKIVNLKQEEGVFEERKGVSQKLTKALQAIKARYLKWEQKVLVPGFKKMAEKGVTYSELRDTFRVRMMNSGRWGTPSGFKRYARLYSEWLHRTGRSHLAK,Kd,1.48 µM
